This note sets out measurements from patent US20230287120A1 (ALLOGENE THERAPEUTICS, published 2023).

Sequences and labels used below:
T1: Flag tagged recombinant DLL3 (Adipogen) (Homo sapiens (Human), UniProt Q9NYJ7 27-492)
T1 construct: Bought reagent; also called Flag-DLL3
T1 sequence: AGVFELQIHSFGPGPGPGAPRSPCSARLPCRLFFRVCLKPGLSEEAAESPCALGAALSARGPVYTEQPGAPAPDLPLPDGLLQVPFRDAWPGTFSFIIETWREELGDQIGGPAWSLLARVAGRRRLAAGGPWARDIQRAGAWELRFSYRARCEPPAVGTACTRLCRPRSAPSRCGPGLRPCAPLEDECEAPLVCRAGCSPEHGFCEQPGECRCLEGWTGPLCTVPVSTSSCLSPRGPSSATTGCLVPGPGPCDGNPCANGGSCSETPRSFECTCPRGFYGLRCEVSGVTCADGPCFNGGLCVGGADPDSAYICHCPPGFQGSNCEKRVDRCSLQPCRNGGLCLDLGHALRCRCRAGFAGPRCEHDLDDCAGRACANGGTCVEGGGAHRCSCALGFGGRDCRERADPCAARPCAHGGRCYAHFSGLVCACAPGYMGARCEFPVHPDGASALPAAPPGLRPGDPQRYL

B1: 2404.8E11 (other)
CAR: QIQLQQSGPGLVKPSQTLSLTCAISGDSVSSNSAVWNWIRQSPSRGLEWLGRTYYRSKWYNDYAVSVKSRITIKPDTAKNQFSLQLNSVTPEDTAVYYFTRGGIVGAPDAFDIWGQGTMVTVSSGGGGSGGGGSGGGGSGGGGSQSVLTQPPSASGTPGQRVTISCSGSSSNIGSDPINWYQQVPGTAPKLLIYSNNQRPSGVPDRFSGSKSGTSASLAISGLQSEDEADYYCAAWDDSLNGYVFGTGTKVTVLTTTPAPRPPTPAPTIASQPLSLRPEACRPAAGGAVHTRGLDFACDIYIWAPLAGTCGVLLLSLVITKRGRKKLLYIFKQPFMRPVQTTQEEDGCSCRFPEEEEGGCELRVKFSRSADAPAYQQGQNQLYNELNLGRREEYDVLDKRRGRDPEMGGKPRRKNPQEGLYNELQKDKMAEAYSEIGMKGERRRGKGHDGLYQGLSTATKDTYDALHMQALPPR
notes: also called anti-DLL3 CAR with 2404.8E11 scFv, on primary T cells
B2: 4E6 (other)
CAR: QVQLQESGPGLVKPSETLSLTCTVSSDSISSYYWSWIRQPPGKGLEWISYIYYSGISNYNPSLKSRVSISVDTSKNQFSLRLSSVTAADTAVYYCARISVAGFFFDNWGQGTLVTVSSGGGGSGGGGSGGGGSGGGGSEIMLTQSPDTLSLSPGERATLSCRASQSVSSSYLAWYQQKPGQAPRLLIYGASSRAAGVPDRFSGSGSGTDFTLTISRLAPEDFVVYYCQQYGISPLTFGGGTKVEIKTTTPAPRPPTPAPTIASQPLSLRPEACRPAAGGAVHTRGLDFACDIYIWAPLAGTCGVLLLSLVITKRGRKKLLYIFKQPFMRPVQTTQEEDGCSCRFPEEEEGGCELRVKFSRSADAPAYQQGQNQLYNELNLGRREEYDVLDKRRGRDPEMGGKPRRKNPQEGLYNELQKDKMAEAYSEIGMKGERRRGKGHDGLYQGLSTATKDTYDALHMQALPPR
notes: also called anti-DLL3 CAR with 4E6 scFv, on primary T cells
B3: 6F8 (other)
CAR: QVQLVQSGAEVKKPGSSVKVSCKASGGTFTNYCISWVRQAPGQGLEWMGGIIPIFGTTNYAQTFQGRVTITADKSTSTAYMELSSLRSEDTAVYYCARDNGDRYYYDMDVWGQGTTVTVSSGGGGSGGGGSGGGGSGGGGSQSVLTQPPSVSAAPGQKVTISCSGSSSNIGNNYVSWYQQLPGTAPKLLIYDNNKRPSGIPDRFSGSKSGTSATLGITGLQTGDEADYYCGTWDSSLSAVVFGGGTKLTVLTTTPAPRPPTPAPTIASQPLSLRPEACRPAAGGAVHTRGLDFACDIYIWAPLAGTCGVLLLSLVITKRGRKKLLYIFKQPFMRPVQTTQEEDGCSCRFPEEEEGGCELRVKFSRSADAPAYQQGQNQLYNELNLGRREEYDVLDKRRGRDPEMGGKPRRKNPQEGLYNELQKDKMAEAYSEIGMKGERRRGKGHDGLYQGLSTATKDTYDALHMQALPPR
notes: also called anti-DLL3 CAR with 6F8 scFv, on primary T cells
B4: 3G6 - L1 (other)
CAR: QVPLVQSGAEVKKPGSSVKVSCKASGGTFSTYSISWVRQAPGQGLEWMGGIIPIFGTTNYAQKFQGRVTITADKSTSTAYMELSSLRSEDTAVYYCARDGEGSYYYYYGMDVWGQGTTVTVSSGGGGSGGGGSGGGGSGGGGSQSVLTQPPSVSAAPGQKVTISCSGSSSNIGNNYVSWYQQLPGTAPKLLIYDNNKRPSGIPDRFFGSKFGTSATLGITGLQTGDEADYYCGTWDSSLSAVVFGGGTKLTVLTTTPAPRPPTPAPTIASQPLSLRPEACRPAAGGAVHTRGLDFACDIYIWAPLAGTCGVLLLSLVITKRGRKKLLYIFKQPFMRPVQTTQEEDGCSCRFPEEEEGGCELRVKFSRSADAPAYQQGQNQLYNELNLGRREEYDVLDKRRGRDPEMGGKPRRKNPQEGLYNELQKDKMAEAYSEIGMKGERRRGKGHDGLYQGLSTATKDTYDALHMQALPPR
notes: also called anti-DLL3 CAR with 3G6-L1 scFv, on primary T cells
B5: 3F9-L (other)
CAR: QVQLQQSGPGLVKPSQTLSLACAISGDSVSSNSAIWNWIRQSPSRGLEWLGGTYYRSMWYNDYAVSVKSRITINPDTSKNQLSLQLNSVTPEDTAVYYCSRGGIVGVPDAFDIWGQGTMVTVSSGGGGSGGGGSGGGGSGGGGSQSVLTQPPSASGTPGQRVTISCSGSSSNIGSNTANWYQQLPGTAPRLLIYRNNQRPSGVPDRFSGSKSGTSASLAISGLQSEDEADYYCAAWDDSLNGYVFGTGTKVTVLTTTPAPRPPTPAPTIASQPLSLRPEACRPAAGGAVHTRGLDFACDIYIWAPLAGTCGVLLLSLVITKRGRKKLLYIFKQPFMRPVQTTQEEDGCSCRFPEEEEGGCELRVKFSRSADAPAYQQGQNQLYNELNLGRREEYDVLDKRRGRDPEMGGKPRRKNPQEGLYNELQKDKMAEAYSEIGMKGERRRGKGHDGLYQGLSTATKDTYDALHMQALPPR
notes: also called anti-DLL3 CAR with 3F9-L scFv, on primary T cells
B6: 3G6 - L2 (other)
CAR: QVPLVQSGAEVKKPGSSVKVSCKASGGTFSTYSISWVRQAPGQGLEWMGGIIPIFGTTNYAQKFQGRVTITADKSTSTAYMELSSLRSEDTAVYYCARDGEGSYYYYYGMDVWGQGTTVTVSSGGGGSGGGGSGGGGSGGGGSQSVLTQPPSASGTPGQRVTISCSGSSSNIGSNYVYWYQQLPGTAPKLLIYSNNQRPSGVPDRFSGSKSGTSASLAISGLRSEDEADYYCAAWDDSLSGWVFGGGTKLTVLTTTPAPRPPTPAPTIASQPLSLRPEACRPAAGGAVHTRGLDFACDIYIWAPLAGTCGVLLLSLVITKRGRKKLLYIFKQPFMRPVQTTQEEDGCSCRFPEEEEGGCELRVKFSRSADAPAYQQGQNQLYNELNLGRREEYDVLDKRRGRDPEMGGKPRRKNPQEGLYNELQKDKMAEAYSEIGMKGERRRGKGHDGLYQGLSTATKDTYDALHMQALPPR
notes: also called anti-DLL3 CAR with 3G6-L2 scFv, on primary T cells
B7: 3E10 (other)
CAR: QVQLQESGPGLVKPSETLSLTCNVSDGSISSYYWTWIRQPPGKGLDWIGYIFYSGTTNYNPSLKSRVTISLDTSKNQFSLKLTSMTAADTAVYYCARISEKSFYFDYWGQGTLVTVSSGGGGSGGGGSGGGGSGGGGSQSVLTQPPSASGTPGQRVTISCSGSSSNIGSNYVYWYQQLPGTAPKLLIYSNNQRPSGVPDRFSGSKSGTSASLAISGLRSEDEADYYCAPWDDSLSGRVFGGGTKLTVLTTTPAPRPPTPAPTIASQPLSLRPEACRPAAGGAVHTRGLDFACDIYIWAPLAGTCGVLLLSLVITKRGRKKLLYIFKQPFMRPVQTTQEEDGCSCRFPEEEEGGCELRVKFSRSADAPAYQQGQNQLYNELNLGRREEYDVLDKRRGRDPEMGGKPRRKNPQEGLYNELQKDKMAEAYSEIGMKGERRRGKGHDGLYQGLSTATKDTYDALHMQALPPR
notes: also called anti-DLL3 CAR with 3E10 scFv, on primary T cells
B8: 11F4 (other)
CAR: QVHLQESGPGLVKPSETLSLTCTVSGGSISHYYWTWIRQPPGKGLEWIGYIYYSGITNFSPSLKSRVSISVDSSKNQFSLNLNSVTAADTAVYYCAGISLAGFYFDYWVQGTLVTVSSGGGGSGGGGSGGGGSGGGGSEIVLTQSPGTLSLSPGERATLSCRASQSVSRSYLAWYQQKPGQAPRLLIYGASSRATGVPDRFSGSGSGTDFTLTISRLEPEDFAVFYCQQYSISPLTFGGGTKVEIKTTTPAPRPPTPAPTIASQPLSLRPEACRPAAGGAVHTRGLDFACDIYIWAPLAGTCGVLLLSLVITKRGRKKLLYIFKQPFMRPVQTTQEEDGCSCRFPEEEEGGCELRVKFSRSADAPAYQQGQNQLYNELNLGRREEYDVLDKRRGRDPEMGGKPRRKNPQEGLYNELQKDKMAEAYSEIGMKGERRRGKGHDGLYQGLSTATKDTYDALHMQALPPR
notes: also called anti-DLL3 CAR with 11F4 scFv, on primary T cells
B9: 3C3 (other)
CAR: QVQLVQSGAEVKRPGASVKVSCKASGYTFTSYYIHWVRQAPGQGLEWMGVIVPSGGSISYAQKFQGRVTMTRDTSTNIVYMELSSLRSEDTAVYYCARDRYYGDYYYGLDVWGQGTTVTVSSGGGGSGGGGSGGGGSGGGGSDIQMTQSPSSLSASVGDRVTITCRASQGINNFLAWFQQKPGKAPKSLIYAASSLQSGVPSKFSGSGSGTDFTLTIRSLQPEDFATYYCQHYNSYPITFGQGTRLEIKTTTPAPRPPTPAPTIASQPLSLRPEACRPAAGGAVHTRGLDFACDIYIWAPLAGTCGVLLLSLVITKRGRKKLLYIFKQPFMRPVQTTQEEDGCSCRFPEEEEGGCELRVKFSRSADAPAYQQGQNQLYNELNLGRREEYDVLDKRRGRDPEMGGKPRRKNPQEGLYNELQKDKMAEAYSEIGMKGERRRGKGHDGLYQGLSTATKDTYDALHMQALPPR
notes: also called anti-DLL3 CAR with 3C3 scFv, on primary T cells
B10: 10E12 (other)
CAR: QVQLQESGPGLVKPSETLSLTCTVSGVSISSYYWSWIRQPPGKGLEWIAYIYYSGNTNYSPSLKSRVTISVDTSKDQLSLKLSSVTAADTAVYYCTRGGSGTIDVFDIWGQGTMVAVSSGGGGSGGGGSGGGGSGGGGSQSVLTQPPSVSAAPGQKVTISCSGSSSNIGNNYVSWYQQLPGTAPKLLIYDNNKRPSGIPDRFSGSKSGTSATLGITGLQTGDEADYYCETWDSSLSAVVFGGGTKLTVLTTTPAPRPPTPAPTIASQPLSLRPEACRPAAGGAVHTRGLDFACDIYIWAPLAGTCGVLLLSLVITKRGRKKLLYIFKQPFMRPVQTTQEEDGCSCRFPEEEEGGCELRVKFSRSADAPAYQQGQNQLYNELNLGRREEYDVLDKRRGRDPEMGGKPRRKNPQEGLYNELQKDKMAEAYSEIGMKGERRRGKGHDGLYQGLSTATKDTYDALHMQALPPR
notes: also called anti-DLL3 CAR with 10E12 scFv, on primary T cells

The first assay has as its target T1, Flag tagged recombinant DLL3 (Adipogen). Kind of assay: flow cytometry, percent of T cells that recognise recombinant DLL3, Donor 503. On the technique in general: Flow cytometry measures light scatter and fluorescence of single cells or particles in a stream.
Experimental: (§1) To determine the percentage of T cells that were successfully transduced with DLL3 CAR, T cells were first incubated with 1 ug/ml Flag tagged recombinant DLL3 (Adipogen) in PBS+1% BSA for 20 minutes at 4 C.
Consider B1, for which the Transduction efficiency turned out to be 58.9%. On the same count and under the same terms, with B2 the figure was 37.8%.

Take B3: the Transduction efficiency came out at 59.4%. On the same count and under the same terms, with B4 the figure was 35%. On the same count and under the same terms, with B5 the figure was 19.5%.

On to B6, for which the Transduction efficiency worked out at 33.5%.

For a further assay the target is unchanged. Nature of the assay: flow cytometry, percent of T cells that recognise recombinant DLL3, Donor 772.
Experimental: as §1
Consider B2, for which the Transduction efficiency is 24.8%.

For B7, the Transduction efficiency amounted to 0.43%. Turning to B8, the Transduction efficiency came out at 0.43%. Turning to B3, the Transduction efficiency came out at 26.7%.

As to B9, the Transduction efficiency came to 0.14%. As to B10, the Transduction efficiency amounted to 0.98%.

In the case of B4, the Transduction efficiency turned out to be 14.2%. Take B5: the Transduction efficiency amounted to 13.8%. Same read-out and setting: the value for B6 was 16.9%.
